Assay results: PMC3121763

Key:
[1] = molecular target: 6xHis-tagged Gifsy-1 prophage repressor GfoR (Salmonella enterica serovar Typhimurium strain ATCC14028, prophage Gifsy-1); experiment: SEC; Sephadex G75 column in IPE buffer (Tris-HCl 20 mM pH 8, NaCl 500 mM, Igepal 0.1%, imidazole 250 mM); about 10 ug of Ni-NTA-purified repressor (cells grown without arabinose) or co-expressed, co-purified repressor-antirepressor complex (with arabinose); calibrated with alpha-chymotrypsin, ovalbumin and BSA; fractions on SDS gel
[2] = tested on: T1, GtgR (Gifsy-2 phage repressor; also written GftR) (Salmonella enterica ATCC14028, Gifsy-2 prophage), ORF:1b72f8f1; experiment: EMSA; settings: 20 mM Tris-HCl pH 7.5, 50 mM NaCl, 0.2 mM EDTA (5x stock in Methods: 1 mM), 1 mM MgCl2, 5% glycerol, PMSF, 50 ug/mL sonicated salmon sperm DNA; room …
T1 sequence: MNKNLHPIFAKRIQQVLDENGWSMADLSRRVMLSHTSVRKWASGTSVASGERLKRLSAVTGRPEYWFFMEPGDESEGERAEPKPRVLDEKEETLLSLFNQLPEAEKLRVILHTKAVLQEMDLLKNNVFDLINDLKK

3xFLAG-tagged Gifsy-1 antirepressor GfoA (natural protein)
stoichiometry N (GfoA per GfoR (2:2)) [1]: 1

6xHis-tagged Gifsy-1 prophage repressor GfoR (natural protein)
stoichiometry N [1]: 2

GTTCGCCGATGCTCATTTGAGTCATGTGGTTACTGATTTTGATTTTTAATTGGTTGTCCATTTGGCTCTCCAGTTCTACGAGTTGGTAGCTGGAGATTATCACGTAAAACTTTAGGTTCCAACAAAAATCAATCTAATAGTTCCAATGAATAAAGAAACTGAAGGTTGTAAAATGTGAATATGAACAAAAATCTTCATCCCATTTTCGCCAAGCGTATCCAGCAAGTTCTGGATGAGAACGGCTGGTCTATGGCTGACCTCTCACGG (double strand) [Gifsy-2 right operator fragment (267 bp)]
binding [2]: binds
